{
  "source": "paper PMC10654658",
  "about": "“The structural and functional investigation into an unusual nitrile synthase” (Nature Communications, 2023)",
  "biological_target": "AetD nitrile synthase (Aetokthonos hydrillicola)",
  "experiment": "SEC; Superdex 200 10/300 GL; 100 uL of 10 mg/mL AetD in 25 mM Tris-HCl pH 7.5, 150 mM NaCl; flow rate 0.2 mL/min; mass estimated from protein markers",
  "data": [
    {"substance": "AetD nitrile synthase (from UniProt A0A861B387 1-239) (enzyme)", "values": [
      {"measurement": "stoichiometry N", "result": 2}
    ]}
  ]
}
